Test results taken from publication doi:10.1101/2023.02.23.529646 (bioRxiv, 2023).
Changes are numbered by the printed parent chain. Numbers in names are those of the source.

B1: ECSIT_(CTER-W324A) (domain or fragment)
chain: QDPVELAMFGLRHMEPDLSARVTIYQVPLPKDSTGAADPPQPHIVGIQSPDQQAALARHNPARPVFVEGPFSLWLRNKCVYYHILRADLLPPEEREVEETPEEANLYYPMQLDLEYVRSGWDNYEFDINEVEEGPVFAMCMAGAHDQATMAKWIQGLQETNPTLAQIPVVFRLAGSTRELQTSSAGLEEPPLPEDHQEEDDNLQRQQQGQS
B2: ECSIT_(CTER-Y327F) (domain or fragment)
chain: B1 chain with A104W, Y107F
B3: ECSIT_(CTER-Y328A) (domain or fragment)
chain: B1 chain with A104W, Y108A
B4: VLCADWT (res. 72-655) (enzyme)
chain: SFAVGMFKGQLTTDQVFPYPSVLNEEQTQFLKELVEPVSRFFEEVNDPAKNDALEMVEETTWQGLKELGAFGLQVPSELGGVGLCNTQYARLVEIVGMHDLGVGITLGAHQSIGFKGILLFGTKAQKEKYLPKLASGETVAAFCLTEPSSGSDAASIRTSAVPSPCGKYYTLNGSKLWISNGGLADIFTVFAKTPVTDPATGAVKEKITAFVVERGFGGITHGPPEKKMGIKASNTAEVFFDGVRVPSENVLGEVGSGFKVAMHILNNGRFGMAAALAGTMRGIIAKAVDHATNRTQFGEKIHNFGLIQEKLARMVMLQYVTESMAYMVSANMDQGATDFQIEAAISKIFGSEAAWKVTDECIQIMGGMGFMKEPGVERVLRDLRIFRIFEGTNDILRLFVALQGCMDKGKELSGLGSALKNPFGNAGLLLGEAGKQLRRRAGLGSGLSLSGLVHPELSRSGELAVRALEQFATVVEAKLIKHKKGIVNEQFLLQRLADGAIDLYAMVVVLSRASRSLSEGHPTAQHEKMLCDTWCIEAAARIREGMAALQSDPWQQELYRNFKSISKALVERGGVVTSNPLGF
B5: VLCAD_(ACAD9) (enzyme)
chain: B4 chain with M366L, M369L, F371Y, M372T
B6: ACAD9WT (res. 38-621) (enzyme)
chain: AFAKELFLGKIKKKEVFPFPEVSQDELNEINQFLGPVEKFFTEEVDSRKIDQEGKIPDETLEKLKSLGLFGLQVPEEYGGLGFSNTMYSRLGEIISMDGSITVTLAAHQAIGLKGIILAGTEEQKAKYLPKLASGEHIAAFCLTEPASGSDAASIRSRATLSEDKKHYILNGSKVWITNGGLANIFTVFAKTEVVDSDGSVKDKITAFIVERDFGGVTNGKPEDKLGIRGSNTCEVHFENTKIPVENILGEVGDGFKVAMNILNSGRFSMGSVVAGLLKRLIEMTAEYACTRKQFNKRLSEFGLIQEKFALMAQKAYVMESMTYLTAGMLDQPGFPDCSIEAAMVKVFSSEAAWQCVSEALQILGGLGYTRDYPYERILRDTRILLIFEGTNEILRMYIALTGLQHAGRILTTRIHELKQAKVSTVMDTVGRRLRDSLGRTVDLGLTGNHGVVHPSLADSANKFEENTYCFGRTVETLLLRFGKTIMEEQLVLKRVANILINLYGMTAVLSRASRSIRIGLRNHDHEVLLANTFCVEAYLQNLFSLSQLDKYAPENLDEQIKKVSQQILEKRAYICAHPLDRTC
B7: ACAD9_(A184S/SR194TS) (enzyme)
chain: B6 chain with A147S, S157T, R158S
B8: ACAD9_(S191A) (enzyme)
chain: B6 chain with S154A
B9: ACAD9_(A184S) (enzyme)
chain: B6 chain with A147S
B10: ACAD9_(VLCAD) (enzyme)
chain: B6 chain with L364M, L367M, Y369F, T370M

Key:
ACAD9WT (res. 38-621) = target: B6; assay: mass photometry
mass photometry = target: the molecule itself; assay: mass photometry
dynamic light scattering = target: the molecule itself; assay: dynamic light scattering

| Binder | binding result (ACAD9WT (res. 38-621)) | stoichiometry N (mass photometry) | other results |
| --- | --- | --- | --- |
| B1 | binds | – | – |
| B2 | binds | – | – |
| B3 | binds | – | – |
| B4 | – | 2 | – |
| B5 | – | 2 | – |
| B6 | – | – | stoichiometry N (dynamic light scattering): 2 |
| B7 | – | 2 | – |
| B8 | – | 2 | – |
| B9 | – | – | binding result (dynamic light scattering): binds |
| B10 | – | 2 | – |
